Reference: the supplement of paper PMC10724198
± gives the standard deviation of the averaged measurements.

Test system: Saccharomyces cerevisiae
Assay: protein stability index of tFT-peptide fusion (C-terminal peptide) (PSI (0-1 scale)); higher = more stable (slower turnover)
Conditions: temperature: 30 C
Method: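 MPS profiling in S. cerevisiae of the yeast C-terminome library: the last 12 aa of each annotated ORF are fused to the C-terminus of a sfGFP-mCherry timer, after a GGGS linker. Cells are FACS-sorted into 8 mCherry/sfGFP bins and deep-sequenced. PSI runs from 0 (unstable) to 1 (stable); wild type and das1Δ backgrounds, two technical replicates each.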

[1] = genetic background: das1 deletion

Sequence	protein stability index [1]	protein stability index (genetic background: wild type)
HISLKCIVYKEY [YER135C C-terminal 12 aa]	0.638 ± 0.0081	0.665 ± 0.016
KEFKQFEFHNRR [RRP36 C-terminal 12 aa]	0.729 ± 0.011	0.681 ± 0.011
NSNKKKGFKSRR [DRS1 C-terminal 12 aa]	0.682 ± 0.017	0.732 ± 0.0088
WLSKSGSSAALP [TOS1 C-terminal 12 aa]	0.717 ± 0.014	0.685 ± 0.022
IRMYLGSSLDIE [SRX1 C-terminal 12 aa]	0.69 ± 0.013	0.6815 ± 0.0061
CYTEEEWSKIVV [BOL2 C-terminal 12 aa]	0.7072 ± 0.003	0.717 ± 0.019
PAKVGIVKGEEN [MGE1 C-terminal 12 aa]	0.693 ± 0.021	0.709 ± 0.015
KQRFLLCWSTKL [YHR131W-A C-terminal 12 aa]	0.693 ± 0.034	0.55 ± 0.04
SLIKQVGVKLDR [JHD2 C-terminal 12 aa]	0.671 ± 0.025	0.67 ± 0.013
YKIKKQPRKKQQ [HST1 C-terminal 12 aa]	0.739 ± 0.015	0.708 ± 0.081
TFKGLYAEANSI [YOR111W C-terminal 12 aa]	0.739 ± 0.01	0.716 ± 0.031
LAVEETIGFGQE [RSP5 C-terminal 12 aa]	0.7037 ± 0.0066	0.692 ± 0.011
SRIQNASASGEI [TIM13 C-terminal 12 aa]	0.685 ± 0.015	0.715 ± 0.015
ISSGPPPRSPNK [IGO2 C-terminal 12 aa]	0.68 ± 0.01	0.6422 ± 0.0036
FENGGKLKEVDK [MDM35 C-terminal 12 aa]	0.686 ± 0.01	0.7211 ± 0.0027
KHKQYFWKRPTK [PLM2 C-terminal 12 aa]	0.714 ± 0.015	0.692 ± 0.019
PTPPGLQGPPGL [MSL5 C-terminal 12 aa]	0.692 ± 0.018	0.693 ± 0.0097
GSTSCPLLRLSR [YHR073C-B C-terminal 12 aa]	0.707 ± 0.021	0.685 ± 0.013
TSHEAVAAKKLI [SHC1 C-terminal 12 aa]	0.673 ± 0.018	0.249 ± 0.011
ARMLARECRRHM [CDC23 C-terminal 12 aa]	0.7022 ± 0.00087	0.698 ± 0.054
AYVLFYHRVYGV [DOA4 C-terminal 12 aa]	0.691 ± 0.011	0.648 ± 0.026

Sequence	protein stability index [1]	protein stability index (genetic background: wild type)
LYFLVKSFLSIV [HMX1 C-terminal 12 aa]	0.668 ± 0.14	0.282 ± 0.12
LDIFCLIFRKRT [YPR076W C-terminal 12 aa]	0.508 ± 0.031	0.5061 ± 0.00095
CICSGMLFEMDG [SIN4 C-terminal 12 aa]	0.696 ± 0.011	0.716 ± 0.067
KYKFYDDENLTE [SOL1 C-terminal 12 aa]	0.72 ± 0.017	0.733 ± 0.081
KTYIKNDVEIFN [HBN1 C-terminal 12 aa]	0.715 ± 0.025	0.726 ± 0.067
NNYNLWFRLSSS [ECL1 C-terminal 12 aa]	0.702 ± 0.027	0.668 ± 0.055
REETEKLNINKD [YAR1 C-terminal 12 aa]	0.71 ± 0.014	0.66 ± 0.067
AAKYLNSLSVNQ [PTP1 C-terminal 12 aa]	0.698 ± 0.029	0.686 ± 0.043
LIDLCCSCAGGM [MNC1 C-terminal 12 aa]	0.685 ± 0.012	0.643 ± 0.0049
DQLLALYEDGLL [AHC2 C-terminal 12 aa]	0.7371 ± 0.0043	0.72 ± 0.043
VVNKYLKENGYY [APE2 C-terminal 12 aa]	0.705 ± 0.02	0.6615 ± 0.0031
LLHTVMNENKLP [LST7 C-terminal 12 aa]	0.716 ± 0.03	0.687 ± 0.054
RTANVVGLDVPT [FMC1 C-terminal 12 aa]	0.683 ± 0.017	0.6639 ± 0.0044
QQYFQEPQQGQY [MCM1 C-terminal 12 aa]	0.676 ± 0.0068	0.703 ± 0.077
PLMFHCTRWEVD [GEP5 C-terminal 12 aa]	0.6911 ± 0.0033	0.741 ± 0.064
RDGQKTSLIRLI [YBR259W C-terminal 12 aa]	0.711 ± 0.035	0.57 ± 0.11
LEKHTASDTSCI [YAL066W C-terminal 12 aa]	0.727 ± 0.025	0.692 ± 0.072
EGIFPANYVRVS [YSC84 C-terminal 12 aa]	0.663 ± 0.01	0.673 ± 0.0097
CKDQTVTQILAT [DMO1 C-terminal 12 aa]	0.6533 ± 0.0054	0.682 ± 0.029
LAFIAACKKYIY [IKS1 C-terminal 12 aa]	0.696 ± 0.023	0.487 ± 0.026
YITTPSSSGHAL [YIL141W C-terminal 12 aa]	0.716 ± 0.0081	0.674 ± 0.027

Sequence	protein stability index [1]	protein stability index (genetic background: wild type)
KAINFDEDVLNL [VID30 C-terminal 12 aa]	0.66 ± 0.017	0.748 ± 0.02
VFPGNYVQLNKN [RVS167 C-terminal 12 aa]	0.6933 ± 0.0022	0.679 ± 0.027
EEFINKLVKSMN [RPL7A C-terminal 12 aa]	0.698 ± 0.029	0.705 ± 0.097
STTKQQSQEAVA [YHL026C C-terminal 12 aa]	0.704 ± 0.027	0.689 ± 0.054
NPADYLLEFGSG [RTG3 C-terminal 12 aa]	0.7103 ± 0.0023	0.72 ± 0.029
ISVSKKTLKSNW [HOP1 C-terminal 12 aa]	0.698 ± 0.011	0.686 ± 0.022
NKTNNKKKHGKK [CLU1 C-terminal 12 aa]	0.698 ± 0.044	0.713 ± 0.024
AEHHLQTFLSEK [ISC1 C-terminal 12 aa]	0.6488 ± 0.0013	0.641 ± 0.02
HFQYKGKPSRRF [BUB1 C-terminal 12 aa]	0.693 ± 0.012	0.685 ± 0.035
FMSNTLFNSSLV [YPR003C C-terminal 12 aa]	0.668 ± 0.012	0.693 ± 0.037
NGINNSSATYKI [ULA1 C-terminal 12 aa]	0.7027 ± 0.0063	0.71 ± 0.038
LKDNLAKPKTRR [VBA2 C-terminal 12 aa]	0.715 ± 0.0088	0.708 ± 0.031
APDNGPTVEEVD [SSA4 C-terminal 12 aa]	0.69 ± 0.0087	0.662 ± 0.023
FCIFNNVVFPML [RRT1 C-terminal 12 aa]	0.717 ± 0.011	0.7002 ± 0.0035
EAQLSRSEVLLV [COS2 C-terminal 12 aa]	0.648 ± 0.0028	0.6242 ± 0.0027
FHTLENHLKGNS [ADR1 C-terminal 12 aa]	0.697 ± 0.02	0.731 ± 0.064
HKGAVCVALNDV [LST8 C-terminal 12 aa]	0.6883 ± 0.0052	0.696 ± 0.051
DHDVSLEEVINI [MCY1 C-terminal 12 aa]	0.722 ± 0.034	0.706 ± 0.02
NILVIVYELLLG [YOS1 C-terminal 12 aa]	0.215 ± 0.023	0.203 ± 0.013
HSSYDRPMIIKN [UBP15 C-terminal 12 aa]	0.685 ± 0.056	0.662 ± 0.025
NPFEYENFINIE [YOR263C C-terminal 12 aa]	0.7418 ± 0.0062	0.721 ± 0.052

Sequence	protein stability index [1]	protein stability index (genetic background: wild type)
NQYANNLNLIDM [YAP1801 C-terminal 12 aa]	0.694 ± 0.026	0.672 ± 0.029
LKSGEKESNASK [SDC1 C-terminal 12 aa]	0.678 ± 0.0026	0.652 ± 0.013
EKVRNEGFIKNP [GPM2 C-terminal 12 aa]	0.716 ± 0.03	0.702 ± 0.075
GDIIKLRESVNA [YJL215C C-terminal 12 aa]	0.6729 ± 0.0061	0.73 ± 0.05
KPMAYSNGGFGL [PPT1 C-terminal 12 aa]	0.674 ± 0.015	0.668 ± 0.015
YALKRNAFKLLK [CRD1 C-terminal 12 aa]	0.682 ± 0.011	0.691 ± 0.02
PFKAIFDAVTKE [ARO1 C-terminal 12 aa]	0.73 ± 0.014	0.717 ± 0.021
NDSEPESEYQQE [CUB1 C-terminal 12 aa]	0.6922 ± 0.0057	0.713 ± 0.0081
VLLTILLFIQAY [SPO19 C-terminal 12 aa]	0.1801 ± 0.0012	0.19 ± 0.0039
SLCKNTIISSSV [YAL063C-A C-terminal 12 aa]	0.693 ± 0.023	0.703 ± 0.035
SVSVQVKWLYSA [YER107W-A C-terminal 12 aa]	0.657 ± 0.012	0.159 ± 0.017
FCMGVAAFVTTA [UTP21 C-terminal 12 aa]	0.493 ± 0.013	0.497 ± 0.0075
TDIEPSAKRQKK [RPF2 C-terminal 12 aa]	0.776 ± 0.048	0.695 ± 0.087
DVHDDVESDDEI [ALF1 C-terminal 12 aa]	0.6961 ± 0.0065	0.7005 ± 0.0059
NTANRIIEELLK [UBC1 C-terminal 12 aa]	0.68955 ± 0.00029	0.67 ± 0.032
PLGVQFLDTFRR [DSC2 C-terminal 12 aa]	0.718 ± 0.013	0.736 ± 0.051
FKKSVDQMNAST [PSY2 C-terminal 12 aa]	0.692 ± 0.026	0.691 ± 0.017
KRRSDSKESRKL [YPR145C-A C-terminal 12 aa]	0.713 ± 0.037	0.673 ± 0.03
FSVEQREKPSNN [GRX6 C-terminal 12 aa]	0.69394 ± 0.0003	0.69949 ± 0.00033
